Assay: yeast display, Sf9 membrane polyspecificity reagent, FACS + sequencing; frameworks hold sequencing errors
Summary of the method: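 Polyreactivity labels are assigned by the sorting gate from which each nanobody was recovered. The gates were low and high (top ~1%), set on anti-HA fluorescence for expression and streptavidin fluorescence for reagent binding. Before sorting, galactose-induced (36–48 hours) yeast display cells were stained for 1 hour at 4 °C with 10% biotinylated, detergent-solubilized Sf9 membrane reagent.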

Row | Sequence | polyreactivity (PSR sort gate)
1 | QVQLVESGGVLVQAGGSLRLSCAASGRIFRYYAMGWYRQAPGKERELVAAIRYRSGGTYYADSVKGRFTISRDNAKNTVYLQMNSLKTEDTAVYYCNADKRLRGHGYDYWGEGTQVTVSS | high polyreactivity
2 | QVQLVESGGGLVQAGGSLRLSCAASGRTIVWYAMGWYRQAPGKERELVAAISKRGGSTYYADSVKGRFTISRDNAKNTVYLQMNSLKPEDTAVYYCAAEVYYGSSYGYWGQGTQVTVSS | high polyreactivity
3 | QVQLVESGGGLVQAGGSLRLSCAASGSTFRGYAMGWYRQAPGKERELVAAISWSGVSTYYADSVKGRFTISRDNAKNTVYLQMNSLKPEDTAVYYCAAGYSSAYLRFGYWGQGTQVTVSS | low polyreactivity
4 | QDQHVESGGGLVQEGGSLRLSCAASGSTFWPYAMGWSRQAPGKERELVARINSGGNTNYADSVKGLFTISRDNAKNTVYLQMNSLKPEDTAVYYCAVRSLYEPRVYYRCVVGDGNYWGQGTQVTVSS | low polyreactivity
5 | QVHLVESGGGLVQAGGTLRLSCYASGRTIDTNAMGWYRQPPGKEREMVATINCSGGRTHYADSVKGRFTISRDNAKNTVYLQMNSLKPEDTAVFYCAKASSRRYWTIRDCDYWGQGTQVTVSS | low polyreactivity
6 | QVQLVESGGGLVQAGGSLRLSCAASGLIFTTNAMGWYRQAPGKEREFVAAISPSGGSTYYADSVKGRFTISRDNAKNTVYLQMNSLKPEDTAVYYCAAAGWSARGYNYWGQGTQVTVSS | high polyreactivity
7 | QVQLVESGGGLVQAGGSLRLSCAASGSISGSNDMGWYRQAPGKERELVAAISGGSSTNYADSVKGRFTISRDNAKNTVYFQMNSLKPEDTAVYYCAARYRWFFFYGPHSPGYNYWGQGTQVTVSS | high polyreactivity
8 | QFQLVESGGGLVQAGGSLRLSCAASGRIFYKYVMGWYRQAPGKERELVAAINLSGGTTYYADSVKGRFTISRDNAKNTVYLQMNSLKPEDTAVYYCAADSFTLTHYYWGQGTQVTVSS | low polyreactivity
9 | QVQLQESGDGLVQAGGSLRLSSAASGTIFSDYGMGWYRQAPGKERELLAGISDGCNTNYTDSVKGRFTISRDNAHRVSADDQPETGGYRGVLLRGSERWLLFYVYWGLGTQVTVSS | high polyreactivity
10 | QVQLVESGGGLVQAGGSLRLSCAASGRTFYRYAMGWYRQAPGKERELVAAISGSGGRTYYADSVKGRFTISRDNAKNTVYFQMNSLKPEDTAVYYCNAYPHAYTGSTREGDYWGQGTQVTVSS | high polyreactivity
11 | QVQLVESGGGLVQAGGSLRLSCAASGRIYFYNALGWYRQAPGKERELVATITRSGGRTYYADSVKGRFTISRDNAKNTVYLQMNSLKPEDTAVYYCAAYPTNNLYPNLEYWGQGTQVTVSS | high polyreactivity
12 | QDQLVESGGGLVQAGGSLSLICAASGFNFALYAMGWYRQAPGKERELVAAINWSGGRTYYADSVKGRFTISRDNAKNTVYLQMNSLKPEDTAVYYCNRRAFSPYAANYYYWGQGTQVTVSS | high polyreactivity
13 | QVQLVESGGGLVQAGGSLRLSCAASGSTFQSNAMGWYRQAPGKERELVAAINSGTSTYYADSVKGRFTISRDNAKNTVYLQMNSLKPEDTAVYYCAADGIWGEYYYSELGDYDYWGQGTQVTVSS | low polyreactivity
14 | QVQLVESGGGLVQAGGRLRLSCAASGRIFYPYDMGWYRQEPGKERELVAAISRSDGITYYADSVKGRFTISRDNAKNTVYLQMKSLKPEDTPVYYCAADDPSGHYPDFEYWGQGTQVTVSS | low polyreactivity
15 | QVQLVESGGGLVQAGGSLRLSCAASGSIFPPNAMGWYRQAPGKERELVAGISQSGGSTYYADSVKGRFTISRDNAKNTVYLQMNSLKPEDTAVYYCARSFYSGRRYYYWGQGTQVTVSS | high polyreactivity
16 | QVQLVESGGRLVQAGGSLRLSCAASGRTIGYYAMGWSRQAPGNEWELVAAISGSGGSTYYADSVKGRFTISRDNAKNTVYLQMNSLKPEDTAVYYCAATTQSRRYEYYYWGQGTQVTVSS | high polyreactivity
17 | QVQLVESGGGLVQAGGSLRLSCAASGRTFKYYAMGWYRQAPGKERELVAAISWSGSSTNYADSVKGRFTISRDNAKNTVYLQMNSLKPEDTAVYYCAAATYRQFTGTYDYWGQGTQVTVSS | high polyreactivity
18 | QVQLVESGGCLVQAGGSVRLSCDASGITFVGNDMGWYRQAPGKERELVAAISSGSTHYADSVKGRFTISRDNAKNTVYLLMNSLKPEDTAFYYCAADIRGGLSNYSPKDYDYWGLGTQVTVSS | low polyreactivity
19 | QVQLVESGGGLVQAGGSLRLSCAASGRIFYSYAMGWYRQAPGKERELVARISSGGSTNYADSVKGRFTISRDNAKNTVYLQMNSLNPEDTAVYYCAAATIWSGVHYGYWGQGTQVTVSS | low polyreactivity
20 | QVQLVESGGGLDQAGGSLRLSCADSGSIFYVYTMGWYRQAPGKERELVAAITSGDGTYYADSVKGRFTISRDNAKSTVYLQMNSLKPEDTAVYYCNADESAYWKLRHGLGSDSWGQGTQVTVSS | low polyreactivity
21 | QVQLVESGGGLVQAGGSLRLSCAASGGIFPTYVMGWYRQAPGKERELVAAIDRNGTSTTYADSVKGRFTISRDYAKNTVYLQMNSLKPEDTAVYYCAAGYNDQTSAYDYWGQGTQVTVSS | low polyreactivity
22 | QVQLVESGGGLVQAGGSLRLSCAASGRIFYTNAMGWYRQAPGKERELVATISSSGGRTYLRNSVKGRFTLSRDNAKNTVYLQMNSLKPEDTAVDYCAAGWSYPVRNIYYYWGQGTQVTVSS | high polyreactivity

Row | Sequence | polyreactivity (PSR sort gate)
23 | QVQLVESGGGLVQAGGSLRLSCSASGSIFGIYTMGWYRQAPGKERELVAAINSGGSTNYADSVKGRFTISRDNAKNTVYLQMNSLKPEDTAVYYCAAGGSSSWAFNYWGQGTQVTVSS | low polyreactivity
24 | QVQLEESGGGLVQAGGSLRLSCAASGFTFRRYAMGWYRQAPGKERELVAVITTAGYTNYADSVKGRFTISRDNAKNSVYLQMNSLKPEDTAVYYCATDNGTRKRRYDYWGQGTQVTVSS | low polyreactivity
25 | QVQLEESGGGLVQAGGSLRISCAASGSIFPSYAMGWYRQAPGKERELVAAISSRGGSTYYADSVKGRFTISRDNAKNSVYLQMNSLKPEDTAVYYCNAVAGGVYVDKGYDYWGQGTQVTVSS | high polyreactivity
26 | QAQLVESGGGLVQAGGSLRLSCAASGSTSLDNAMGWYRQAPGKERELVAAIRWRGSITFYADSVKGRFTISRDNAKNTVYLQMNSLKPEDTAVYYCAVTLRYTRSGAYDYWGQGTQVTVSS | low polyreactivity
27 | QVQLVESGVGLVQAGGSLRLSCAASGRTIDHYAMGWYRQAPGKERELVAAISTTGGSTYYADSVKGRFTISRDNAKNTVYLQMNSLKPEDTAVYYCAARGLRTGGYWGQCTQVTVSS | high polyreactivity
28 | QVQLVESGGGLVQAGGSLRLSCAASGRIFSDNAMGWYRQAPGKERELVAAITDRGGSTYYADSVKGRFTISRDNAQNTVYLQMNSLKPEDTAVYYCAARNTPAQLDYWGQGTQVTVSS | low polyreactivity
29 | QVQLVESGGGLVQAGGSLRLSCAASGLTFSLNAMGWYRQAPGKERELVAAISFSGGSTYYADSVKGRFTISRDNAKNTVYLQMNSLKPEDTAVYYCAVRKRVGRGRYGYWGQGTQVTVSS | high polyreactivity
30 | QVQLVESGGGLVQAGGSLRLSCAASGLTFRQYAMGWYRQAPGKERELVAAIDTGASTNYADSVKGRFTISRDNAKNTVYLQMNSLKPEDTAGYYCNAELWYGPDELTGDYWGQGTQVTVSS | low polyreactivity
31 | QVQLVESGGGLVQAGGSLRLSCAASGRTSTIYTMGWYRQAPGKESEFVASISAGAGTYYADSVKGRFTISRDNAKNTVYLQMNSLKPEDTAVYYCNASVYWRSTRRHQMDYWGQGTQVTVSS | high polyreactivity
32 | QVQLVESGGGLVQAGGSLSLSCAASGRIFYVNTMGWYRQAPGKERELVATISSAASTNYADSVKGRFTISRDNAKNTVYLQMNSLKPEDTAVYYCNASRLSRLSALSGFYSWGQGTQVTVSS | low polyreactivity
33 | QVQLVESGGGLVQAGGRLRLSCADSGSTFWSYAIGWYRQSPGKEREFVAAISSSDDSTYYADSVKGRFTISRDNAKNTVYLQMNSLKPEDTAVYYCATSWYIYPFDYWGQGTQVTVSS | low polyreactivity
34 | QVQLVESGGGLVQAGGILRLSCAASGSIFNGYAMGWYRQSPGKERELVAAISWNGGSTYYADSVKGRFTISRDNAKNTFYLLMNSLKPEDTAVYYFAAGGYYDSRTYYYWGQGTQVSVSS | high polyreactivity
35 | QVQLVESGGGLVQAGGSLRLSCAASGSIFPEYAMGWYRQAPGKERELVAAITTSGGSTYYADSVKGRFTISRDNAKNTVYLQMNSLKPEDTAVYYCAAGTQAHAYVVRPIEMDYWGQGTQVTVSS | low polyreactivity
36 | QVQLVESWGGLVQAGGSLRLSCAASGTTFTVYAMGWYRQAPGKERELVAAISWSTGRTYYADSVKGRFTISRDHAKNTVYLQMNSLKPEDTAVYYCAARVSYYRTPAEYGYWGQGTQVTVSS | high polyreactivity
37 | QGQLVESGGGLVQAGCSLRLSCAASGSTFRRYAMGWDRQAPGKERELVATINWSGGRTYYADSVKGRFTISRDNAKKTGSLQMNRLKPVDTAVYYCAKADYYGYHYYYWGQGTQVTVSS | high polyreactivity
38 | QVQLVESGGGLVQAGGSLRLSCAASGRTQWRYAMGWYRQAPGKERELVASIRSGGSTYYADSVKGRFTISRDNAKNTVYLQMNSLKPEDTAVYYCAARYYWGAEAGYYYWGQGTQVTVSS | high polyreactivity
39 | QVQLVESGGGLVQAGGSLRLICAASGSTFGVNAMGWYRQAPGKERELVAVITRSGGSTYYADSVKGRFTISRDNAKNTVYLEMNSLKPEDTAVYYCAKSGVVDWGQGTQVTVSS | low polyreactivity
40 | QVQLVESGGGLVQAGGSLRLSCAASGYIFDGNAMGWYRQAPGKERELVAPITWTGGSTYYADSVKGRFTISRDNAKNTVYLQMNSLKPEDTAVYYCAKPYDPGPYHSSYRATDDYWGQGTQVTVSS | low polyreactivity
41 | QVQLVESGGGLVQAGGSLRLSCAASGIIFEYYAMGWYRQAPGKERELVAAITRGGSTYYADSVKGRFTISRDNAKNTVYLQMNSLKPEDTAVYYCAADRYYYEYEYWGQGTQVTVSS | low polyreactivity
42 | QVQLVESGGGLVQAGGSLRLSCAASGFTFGYYAMGWYRQAPGKERELVARISRRGGTTYYADSVKGRFTISRDNAKTTVYLQMNSLKPEDTAVYYCATDGVWNRINRYDYWGQGTQVTVSS | high polyreactivity
43 | QVQLVESGGGLVQAGGSLRLICAASGIIFRVYAMGWYRQAPGKERELVATITWSGGSTFYADSVKGRFTISRDNAKNTVDLQRNSLKPEDTAVYYCAARGYLRGEQLYVLIRYDYWGQGTQVTVSS | low polyreactivity
